Results taken from publication PMC6472409, “Dishevelled-3 conformation dynamics analyzed by FRET-based biosensors reveals a key role of casein kinase 1” (Nature Communications, 2019).
Residue numbers refer to the chain shown, from its start. Blank lines part the entries; values can stand above or below the molecule they belong to. Where a SMILES comes first, the peptide text is derived from it. [ ]: non-standard residue; d: D form. The star is where a group is joined. FITC = O=C1OC2(c3ccc(O)cc3Oc3cc(O)ccc32)c2ccc(NC(=S)*)cc21; pS = N[C@@H](COP(=O)(O)O)C(=O)O; Ahx = NCCCCCC(=O)O

Key:
[1] = target: recombinant His-tagged human CK1ε (Homo sapiens, UniProt P49674); test: Fluorescence anisotropy (FA) binding of FITC-labeled peptides; conditions: FITC-Ahx peptide 50 nM, 30 min, 37 °C; n=3; read-out: affinity for recombinant CK1ε (fluorescence anisotropy)
recombinant His-tagged human CK1ε, sequence (P49674 whole entry): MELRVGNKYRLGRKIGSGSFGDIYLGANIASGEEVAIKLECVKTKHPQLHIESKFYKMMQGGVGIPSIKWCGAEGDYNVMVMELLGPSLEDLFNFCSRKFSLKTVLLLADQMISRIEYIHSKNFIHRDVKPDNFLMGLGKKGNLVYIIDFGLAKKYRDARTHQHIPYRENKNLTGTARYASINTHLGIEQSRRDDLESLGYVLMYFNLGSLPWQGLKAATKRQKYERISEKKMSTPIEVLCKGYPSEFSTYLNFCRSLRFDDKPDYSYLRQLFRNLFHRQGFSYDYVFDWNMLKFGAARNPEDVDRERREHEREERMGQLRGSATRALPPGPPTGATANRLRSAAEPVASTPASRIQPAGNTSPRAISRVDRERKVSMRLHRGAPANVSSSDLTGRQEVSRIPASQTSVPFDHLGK
From the text: The peptides used in the fluorescent polarization (FA) binding assays were synthesized at Pepscan B.V. (Lelystad, Netherlands). The sequences of these peptides (indicated in Supplementary Fig. 4a) were amidated at their C-termini, and their N-termini were acylated with 6-aminocaproic acid (Ahx) modified with fluorescein isothiocyanate (FITC). The peptides used in the NMR/SPR studies were purchased from KareBay Biochem, Inc. (New Jersey, USA). The peptides for the NMR/SPR studies contained no terminal modifications.
Data were recorded at 37 °C using Tecan Infinite F500 (Tecan Systems, Germany). FITC-labeled peptides were dissolved in DMSO and added to 384-well plates (Corning) to a total volume of 20 μl (peptide final concentration was 50 nM). Incubation with recombinant His-tagged human CK1ε (MyBioSource, #MBS964562) was performed for 30 min at 37 °C. Then, fluorescence intensities were collected simultaneously by detection at 535/590 and 485/535 nm excitation/emission wavelengths, respectively, followed by adjustment to the blank controls.

[2] = target: FITC-labeled peptide corresponding to the DVL3 RGCF region, non-phosphorylated (fluorescence anisotropy) (human); test: fluorescence polarisation; fluorescence anisotropy, 50 nM FITC-labeled peptide with recombinant His-tagged human CK1ε, 30 min at 37 °C, 384-well plates
[3] = target: FITC-labeled peptide corresponding to the DVL3 FRMA region, non-phosphorylated (fluorescence anisotropy) (human); test: as above
[4] = target: FITC-labeled peptide corresponding to the DVL3 RGPR region, non-phosphorylated (fluorescence anisotropy) (human); test: as above
[5] = target: T1, PDZ domain of human DVL2 (aa 265–361), phosphorylation-mimicking variant S286E + S329E (human, UniProt O14641 265-361, S286E | S329E); test: NMR titration; 1H,15N HSQC series, 100 μM 15N-labeled PDZ with increasing amounts of peptide; 20 mM HEPES pH 6.8, 50 mM KCl; apparent KD from three fast-exchange cross-peaks; conditions: both partners purified
T1 construct: Dishevelled-2, human, PDZ domain aa 265-361 with S286E and S329E; 15N-labeled for NMR; also called S286E/S329E PDZ; PDZ phosphomimicking variant; source: E. coli BL21 (DE3), purified (Ni-NTA, TEV cleavage, ion exchange, size exclusion); not shown: His6, N-terminal, cleaved; lipoyl domain, N-terminal, cleaved
T1 sequence (looked up): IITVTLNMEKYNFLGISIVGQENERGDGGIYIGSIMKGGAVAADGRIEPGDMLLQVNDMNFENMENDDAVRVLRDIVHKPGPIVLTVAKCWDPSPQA

[6] = target: T2, PDZ domain of human DVL2 wild type (aa 265–361) (human, UniProt O14641 265-361); test: NMR
T2 chain: T1 sequence (looked up) with E22S, E65S

[7] = target: T3, PDZ domain of human DVL2 (aa 265–361), phosphorylation-mimicking variant S286E + S329E (human, UniProt O14641 265-361, S286E | S329E); test: NMR
T3 sequence: T1 sequence (looked up)

[8] = target: T4, PDZ domain of human DVL2 wild type (aa 265–361) (human, UniProt O14641 265-361); test: SPR; Biacore T200, PDZ immobilized on CM5 chip by amino coupling, peptide injected at increasing concentrations to steady state; one-site equilibrium fit, apparent KD; conditions: both partners purified
T4 construct: Dishevelled-2, human, PDZ domain aa 265-361; 15N-labeled (13C/15N for assignment) for NMR; S286 and S329 correspond to S268 and S311 of human DVL3; also called DVL2 PDZ wild type; PDZ wt; source: E. coli BL21 (DE3), purified (Ni-NTA, TEV cleavage, ion exchange, size exclusion); not shown: His6, N-terminal, cleaved; lipoyl domain, N-terminal, cleaved
T4 sequence (looked up): T1 sequence (looked up) with E22S, E65S

[9] = target: T1, PDZ domain of human DVL2 (aa 265–361), …; test: as above; conditions: both partners purified

Kd [1]: ~1000 nM
Molecule: CSCC[C@H](NC(=O)[C@H](C)NC(=O)[C@H](CCSC)NC(=O)[C@H](CCCNC(=N)N)NC(=O)[C@H](Cc1ccccc1)NC(=O)[C@H](CO)NC(=O)[C@H](CCC(N)=O)NC(=O)[C@H](CCCNC(=N)N)NC(=O)CCCCCNC(=S)Nc1ccc2c(c1)C(=O)OC21c2ccc(O)cc2Oc2cc(O)ccc21)C(=O)NCC(=O)N[C@@H](CC(N)=O)C(N)=O [FRMA] ({FITC-Ahx}-RQSFRMAMGN-NH2)

Kd [1]: ~1000 nM
Molecule: CC(C)C[C@H](NC(=O)[C@@H](NC(=O)[C@H](Cc1ccccc1)NC(=O)[C@H](CS)NC(=O)CNC(=O)[C@H](CCCNC(=N)N)NC(=O)[C@@H]1CCCN1C(=O)[C@H](CO)NC(=O)[C@@H]1CCCN1C(=O)CCCCCNC(=S)Nc1ccc2c(c1)C(=O)OC21c2ccc(O)cc2Oc2cc(O)ccc21)[C@@H](C)O)C(=O)N1CCC[C@H]1C(=O)N[C@@H](CCCNC(=N)N)C(=O)N[C@@H](CO)C(=O)N[C@@H](CCC(=O)O)C(N)=O [RGCF] ({FITC-Ahx}-PSPRGCFTLPRSE-NH2)

Kd [1]: ~1000 nM
Molecule: CC(C)C[C@H](NC(=O)[C@H](CO)NC(=O)[C@H](CO)NC(=O)CCCCCNC(=S)Nc1ccc2c(c1)C(=O)OC21c2ccc(O)cc2Oc2cc(O)ccc21)C(=O)N[C@@H](CCCNC(=N)N)C(=O)NCC(=O)N1CCC[C@H]1C(=O)N[C@@H](CCCNC(=N)N)C(=O)N[C@@H](CCC(=O)O)C(=O)N[C@@H](CCCNC(=N)N)C(=O)N[C@@H](C)C(=O)N1CCC[C@H]1C(=O)N[C@@H](CO)C(=O)N[C@@H](CCC(=O)O)C(N)=O [RGPR] ({FITC-Ahx}-SSLRGPRERAPSE-NH2)

Kd [2]: 1000 nM
Kd [3]: 1000 nM
Kd [4]: 1000 nM
Molecule: recombinant His-tagged human CK1ε (MyBioSource, #MBS964562) (from UniProt P49674 1-416) (enzyme)

fold weaker affinity than PDZ wt [5]: 2 fold
Kd [6]: 296 µM
Kd [7]: 625 µM
binding result [8]: binds
fold lower affinity than PDZ wt [9]: 2 fold
B1: phosphorylated (pS700) C-terminal peptide derived from DVL3 (aa 698–716) (peptide, UniProt Q92997 698-716, looked up)
peptide: H-RQ[pS]FRMAMGNPSEFFVDVM-OH
notes: Dishevelled-3, human, C-terminal aa 698-716; the last seven residues are printed as EFFVDIM; also called DVL C-terminal peptide; C-terminal DVL peptide (pS700); source: synthetic peptide, bought: KareBay Biochem
